Reference: the supplement of paper PMC9170038

Test system: MS2 coat protein
Assay: apparent KD of MS2 coat protein; designed switch direction (-1 OFF switch, 1 ON switch): -1; higher = weaker reporter binding
How it was run: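 Stalled E. coli RNA polymerase transcribed designed RNA switches on Illumina chips, which were then titrated with SNAP-549-labelled MS2 coat protein, doubling from 0.7 or 1.5 nM to 3 µM. Steps lasted from 0.8–1.5 h at the lowest concentration to 10–20 min at the highest. The apparent KD is each design's median over clusters of curve-fitted normalised fluorescence.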

[1] = Eterna round: R95, input ligand: microRNA oligo, concentration not stated
[2] = input ligand: microRNA oligo, concentration not stated
[3] = Eterna round: R95, input ligand: FMN 200 uM
[4] = Eterna round: R95, input ligand: none

Row | Sequence | apparent KD of MS2 coat protein (input ligand: FMN 200 uM) | apparent KD of MS2 coat protein (input ligand: none) | apparent KD of MS2 coat protein [1] | further results
1 | AUCAUGUAAGGAUAUCGUGCAAGUUUCAAAAGAGGCUUGUGCGAGAAGGUACAUGAGGAUCACCCAUGUAGGUU [Omei Ex4 B10] (Eterna round: R97, puzzle: Exclusion 4) | 57.8 nM | 584 nM | – | –
2 | GUCAUGUUAGGAUAUUUCCCAGCUGAGACUACAGAUUGUAGGAAGAAGGAACAUGAGGAUCACCCAUGUGAAAA [Eternabot (L2) Solution 28] (Eterna round: R97, puzzle: Exclusion 4) | 36.6 nM | 39 nM | – | –
3 | UCAGGUGCAGGAUAUACAUGAGGAUCACCCAUGUGAUUAGCAGUCCUCGGACUGCAAUGUAGAAGGGCACCUGA [E3/2-D2] (Eterna round: R97, puzzle: Exclusion 3) | 763 nM | 346 nM | – | –
4 | UAUUCGCAAGUGAGAUCCCACAUGAGGAUCACCCAUGUGCUCGUCUUAUAAGGUACUGUGACGAUAGUCACGGUACC [Mat - Sensor, turn-off var - Eli Mod - D80] (Eterna round: R97, puzzle: Sensor, turn-off variant 1) | 30.9 nM | 32.5 nM | – | –
5 | AAAAUAAGUGUGAGGAUAUGCUGGUCCUUGGAUCAGCAGAAGGCACAUGAGGAUCACCCAUGUAAUAUAUUUAU [Mat - Exclusion 4 - JL Mod - D62] (puzzle: Brourd's mod of Exclusion 4) | – | – | 77.3 nM | –
6 | AGGUGUAGAGGAUAUCGAAUCCUUUACAUGAGGAUCACCCAUGUCCUGGGCACCCAGGACCGAGAAGGCUACACCA [Omei Ex5 D33] (Eterna round: R97, puzzle: Exclusion 5) | 40.2 nM | 2350 nM | – | –
7 | UACAUGAGGAUCACCCAUGUUUUGUCGUGUAUGGUAUUUAUCUAGGAUAUCAUUGUAUUUAGUUAUGAGAAGGAGAAUAUUAAU [JMF's solution 83] (Eterna round: R96, puzzle: Exclusion NG 3) | 30.2 nM | 33 nM | – | apparent KD of MS2 coat protein [2]: 22.9 nM
8 | UUAUUAAGUGUGAGGAUAUGCUGGUCCUUGGAUCAGCAGAAGGCACAUGAGGAUCACCCAUGUACAAUAUUUUA [Mat - Exclusion 4 - JL Mod - D29] (puzzle: Brourd's mod of Exclusion 4) | – | – | 35.8 nM | –
9 | UAGAUGGGAGGAUAUGCGUAGAUGCGGAUUCGUGUGGUGCUACAUGAGGAUCACCCAUGUAGAAGGCCCGUCUU [JL-ex2-2.26 Mayanne mod] (puzzle: Exclusion 2) | – | – | 13.5 nM | –
10 | CAUUAGCAAGCGAGAUCCCACAUGAGGAUCACCCAUGUGCUCGUCUUAUAAGGUACUGUGACGAUAGUCACGGUACC [Mat - Sensor, turn-off var - Eli Mod - D41] (Eterna round: R97, puzzle: Sensor, turn-off variant 1) | 17.1 nM | 14.3 nM | – | –
11 | UACACUGCAUGAGGAUCAAACAUGAGGAUCACCCAUGUAUAGCAGGCUUUUUGUCCGUCUUAUAAUUAUGUAGUGUA [Electric Eye 17 - Jieux - Sensor, turn-off variant 1] (Eterna round: R97, puzzle: Sensor, turn-off variant 1) | 17.3 nM | 15 nM | – | –
12 | AAGGAUAGAGGAUAUACAUAGAUACAGGUUCAUGUAGAACUACAUGAGGAUCACCCAUGUAGAAGGCUAUCCUA [Fiskers Ex 2 - 8] (puzzle: Exclusion 2) | – | – | 20.8 nM | apparent KD of MS2 coat protein [3]: 113 nM; apparent KD of MS2 coat protein [4]: 21.1 nM
13 | AAGAAACAUGAGGAUCACCCAUGUGAGGAUAUGAAAAAGAAAAGAAAAGAAAGAAGGAUCAGAAGGCACAAAGG [salish99-ex1_r3_025] (puzzle: Exclusion 1) | – | – | 30.3 nM | apparent KD of MS2 coat protein [3]: 43 nM; apparent KD of MS2 coat protein [4]: 34.1 nM
14 | UGUCAGAUGGUAGGAUAUCCUUAUCGCGUGUCCCUUUCCUAACAUGAGGAUCACCCAUGUCGGUGGGAGAAGGGCCGUAUGGUG [salish99_ExNG02_R04_038] (Eterna round: R96, puzzle: Exclusion NG 2) | 11.5 nM | 13.4 nM | – | apparent KD of MS2 coat protein [2]: 11.2 nM
15 | CCAGUACGAGGAUAUACAUGAGGAUCACCCAUGUAAAUUGCCACGUCUUGGACGUCAUGUAGAAGGCGUUGGAA [EX3 C.1] (Eterna round: R97, puzzle: Exclusion 3) | 15.2 nM | 14.3 nM | – | –
16 | UCUUCACAUGAGGAUCACCCAUGUGAGGAUAUGGUUUCGCUGGCCGUAGCCAGUGGAACCAGAAGGCGCGUGAU [Mat - Exclusion 1 - JL Mod - D23] (Eterna round: R97, puzzle: Exclusion 1) | 89.6 nM | 73.5 nM | – | –
17 | CUUUUGUGAGGAUAUUAGUAGUAAAAAAAUAAAAUUACUACUGAGAAGGCACAUGAGGAUCACCCAUGUUUCUC [salish99_ex4_r3_037] (puzzle: Exclusion 4) | – | – | 29.2 nM | –
18 | GAUCUACAUGAGGAUCACCCAUGUAAGGAUAUCUACAUUGAAGCCUCGGCUUCAAUGUAGAGAAGGUACAAUUA [E1/10-B2] (Eterna round: R97, puzzle: Exclusion 1) | 31.5 nM | 32.4 nM | – | –
19 | GUCCUACAUGAGGAUCACCCAUGUGAGGAUAUGCGAUUAGCUGCUAGGUAGUUAGUAUGUAGAAGGCGCAUGAA [EX1 #77] (Eterna round: R97, puzzle: Exclusion 1) | 15.9 nM | 14.6 nM | – | –
20 | AUUGUUUAUGUAGGAUAUGCCUGGCGUGCCUUUGCAGAAGGACAUGAGGAUCACCCAUGUAACAUGAGGCUCACCCAUGUCGCG [salish99_ExNG1_r04_113] (Eterna round: R96, puzzle: Exclusion NG 1) | 297 nM | 333 nM | – | apparent KD of MS2 coat protein [2]: 184 nM
21 | CUUUAGUGAGGAUAUCAGUAGUAGAACAAUAGUACUACUACUGAGAAGGCACAUGAGGAUCACCCAUGUUCCUC [Fiskers Ex 4 Super stable 44 mod 8] (puzzle: Exclusion 4) | – | – | 34.5 nM | –
22 | AGCUGUGGCCGAGGAUAUCAAGAACCAUGGAAAACCAUGGAACCUUGACAUGAGGAUCACCCAUGUGAGAAGGCGGUCUCAGCA [Eli eng2 - 026] (Eterna round: R96, puzzle: Exclusion NG 2) | – | – | – | apparent KD of MS2 coat protein [2]: 11.1 nM
23 | AAGGGCUGAGGAUAUGCGCGGGCAAGAUCCUCAAUCCCAAAACAUGAGGAUCACCCAUGUAGAAGGCAGAAAUA [Atedonesle] (puzzle: Exclusion 2) | – | – | 28.3 nM | –
24 | AAAAAACAUGAGGAUCACCCAUGUUAGGAUAUGCUAUGGAAAAUAAAAAAUAAACAUAGCAGAAGGAACAAAAA [Mat - Exclusion 1 - Eli mod - D30] (Eterna round: R96, puzzle: Exclusion 1) | – | – | – | apparent KD of MS2 coat protein [2]: 33.2 nM
25 | CCCGCAGGCUUUUUGCUCGACAUGAGGAUCACCCAUGUUGUAUGGGUUGUGUGUGUGUGGUGCAUAUAUAUGGUCCU [-25.6, -50.1 kcal, A 16%] (Eterna round: R97, puzzle: Sensor, turn-off variant 1) | 313 nM | 469 nM | – | –
26 | GCACUGACAGGAUAUACAUGAGGAUCACCCAUGUGACCCUUAAAGUACUCGCGUACAAGUAGAAGGGUCUGUGC [Omei Ex3 Model Bachelor's Dilema v30] (Eterna round: R97, puzzle: Exclusion 3) | 398 nM | 66.7 nM | – | –
